Laboratory results reported in patent EP3418296A1.

Tests used:
[1] = molecular target: native Sclerotium rolfsii lectin (SRL) (Sclerotium rolfsii); assay: inhibition by mucin of native lectin binding to Molt 4 cells
[2] = molecular target: native Sclerotium rolfsii lectin (SRL) (Sclerotium rolfsii); assay: inhibition by mucin of native lectin binding to Jurkat cells
[3] = molecular target: native Sclerotium rolfsii lectin (SRL) (Sclerotium rolfsii); assay: inhibition by mucin of native lectin binding to COLO 205 cells
[4] = molecular target: native Sclerotium rolfsii lectin (SRL) (Sclerotium rolfsii); assay: inhibition by mucin of native lectin binding to PA-1 cells
[5] = molecular target: Molt 4 cultured leukemic cells (unnamed cell surface lectin receptors); assay: lectin binding to cultured Molt 4 cells, lectin alone (method not described)
[6] = molecular target: Jurkat cultured leukemic cells (unnamed cell surface lectin receptors); assay: lectin binding to cultured Jurkat cells, lectin alone (method not described)
[7] = molecular target: COLO 205 cultured colon cells (unnamed cell surface lectin receptors); assay: lectin binding to cultured COLO 205 cells, lectin alone (method not described)
[8] = molecular target: PA-1 cultured ovarian cells (unnamed cell surface lectin receptors); assay: lectin binding to cultured PA-1 cells, lectin alone (method not described)

| Substance | % positive cells (lectin + mucin) [1] | % positive cells (lectin + mucin) [2] | % positive cells (lectin + mucin) [3] | % positive cells (lectin + mucin) [4] | % positive cells [5] | % positive cells [6] | % positive cells [7] | % positive cells [8] |
| --- | --- | --- | --- | --- | --- | --- | --- | --- |
| mucin | 0.24% | 0.5% | 0.99% | 1.63% | – | – | – | – |
| native Sclerotium rolfsii lectin (SRL) | – | – | – | – | 88.5% | 33.8% | 91.7% | 96.7% |
